Results published in paper PMC7144924 (Nucleic Acids Research, 2020).

Biological target: T1, GST-tagged R289A mutant Rrp9 (S. cerevisiae, UniProt Q06506 1-573, R289A)
T1 sequence (looked up): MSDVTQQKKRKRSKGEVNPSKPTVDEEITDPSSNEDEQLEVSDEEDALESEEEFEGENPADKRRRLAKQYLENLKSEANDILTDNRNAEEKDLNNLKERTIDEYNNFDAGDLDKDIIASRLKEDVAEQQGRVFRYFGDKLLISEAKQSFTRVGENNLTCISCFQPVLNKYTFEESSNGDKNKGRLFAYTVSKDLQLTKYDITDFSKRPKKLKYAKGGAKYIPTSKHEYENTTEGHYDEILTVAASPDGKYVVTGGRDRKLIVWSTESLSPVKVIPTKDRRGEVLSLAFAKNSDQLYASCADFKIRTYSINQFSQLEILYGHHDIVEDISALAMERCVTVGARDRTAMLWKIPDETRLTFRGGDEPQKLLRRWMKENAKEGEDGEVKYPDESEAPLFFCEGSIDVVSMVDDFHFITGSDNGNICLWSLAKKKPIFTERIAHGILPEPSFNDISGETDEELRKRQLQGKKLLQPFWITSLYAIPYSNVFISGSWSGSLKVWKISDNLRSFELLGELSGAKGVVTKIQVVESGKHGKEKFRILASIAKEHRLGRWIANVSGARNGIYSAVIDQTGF
Experiment: pull-down

B1: [35S]-methionine-labeled Rrp36, in vitro translated (natural protein, S. cerevisiae, UniProt Q12481 1-300, looked up)
chain: MSYYFKNLKPDLNSDVEEDDGNLLESIMANKSKREIDEQESSDDELKTLSFGSLKKAETVIDEEDFKDTKPVHKKPITTTYREESFDEDEDSEDQSDEDAGFFEEDSEDETHHGQKVPKKKSKHAPVEQSSKKRVPRVRNIPGLEIPRNKRSNLYQDIRFDKSTGKALDSSIIRKRYQFLDEYREKEIDELQKLLQERKFLSKIDQGEREEMEQRLKSMKSRLQSMKNKDLEREILKEYENDMNKNNNTRYHLKKSEKRKVVQKWKFDHMKAKQREKVMERKRKKRLGKEFKQFEFHNRR
modifications: [35S]-methionine-labeled
reduction of recovery relative to WT Rrp9: 20%
